According to patent US20220119450A1 (UNIVERSITY OF TARTU, published 2022):
No end group written: not given here. FAM = 5(6)-carboxyfluorescein; Ahx = NCCCCCC(=O)O

T1: recombinant His-tagged tenascin-C C domain (TNC-C)
T1 construct: 112 amino acids, expressed in E. coli from pET28a+ with N-terminal His-tag
T1 chain: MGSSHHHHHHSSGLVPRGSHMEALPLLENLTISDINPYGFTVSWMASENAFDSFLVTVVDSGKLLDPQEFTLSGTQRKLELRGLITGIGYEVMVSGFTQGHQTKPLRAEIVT

B1: PL5 peptide displayed on T7 phage (PPRRGLIKLKTSSNTKENSVVASLRP) (peptide)
peptide: PPRRGLIKLKTSSNTKENSVVASLRP
modifications: not fully specified (N-terminus); also: displayed on T7 phage capsid protein
notes: 26-aa peptide at the C-terminus of the T7 major capsid protein, arisen by a frameshift; also called PL5 phage
B2: PL3-functionalized silver nanoparticles (biotinylated PL3 peptide on NeutrAvidin-coated AgNPs) (peptide)
peptide: AGRGRLVR
modifications: not fully specified (N-terminus); also: biotinylated, site not given here, bound to NeutrAvidin on dye-labeled PEGylated silver nanoparticles
notes: Multivalent display on nanoparticles; also called PL3-AgNPs; AgNP-PL3
B3: synthetic FAM-labeled PL1 peptide (peptide)
peptide: {FAM-Ahx}-PPRRGLIKLKTS-OH
notes: Immobilized on ELISA plate and probed with His-tagged recombinant proteins; also called FAM-PL1

Target: T1, recombinant His-tagged tenascin-C C …
Test: binding specificity, T7 peptide phage
Procedure: (§1) To identify bispecific peptides that interact with both TNC-C and FN-EDB, cross screens were performed on both targets. During the first round of selection, microtiter plates coated with 20 μg/ml recombinant purified TNC-C were blocked with PBS containing 1% bovine serum albumin (BSA), followed by incubation with 5×10⁸ pfu of phages in PBS at 4° C. overnight, by washes to remove background, and by phage rescue and amplification in BLT5403 strain of E. coli (Novagen, EMD Biosciences, MA, USA) (Teesalu et al., Methods Enzymol. 503:35-56 (2012)). The following rounds of biopanning were carried on Ni-NTA Magnetic Agarose Beads (QIAGEN, Hilden, Germany) coated with hexahistidine-tagged FN-EDB (3 μg/μl beads) at room temperature. After 5 rounds of selection, a set of random clones was sequenced, and individual peptide-phage clones and control (G7 peptide-displaying or insertless) phages were incubated with FN-EDB and TNC-C-coated magnetic beads. RPARPAR phage (SEQ ID NO:5) and His-tagged NRP-1 b1b2 domain were used as positive control (Teesalu et al., Proc. Natl. Acad. Sci. U.S.A 106:16157-62 (2009)). To address the specificity of the peptide phage binding to the FN-EDB and TNC-C, the protein-coated beads were pre-incubated with 20 μg/ml blocking rabbit polyclonal antibodies.
(§2) Immobilized FAM-PL1 was probed with recombinant His-tagged EDB and TNC-C (or control BSA), followed by sequential incubation with rabbit anti-His-tag primary antibody, secondary goat anti-rabbit HRP antibody and a chromogenic peroxidase reaction.

| Binder | binding result |
| --- | --- |
| B1 | binds |

Target: T2, recombinant His-tagged fibronectin extra domain B (FN-EDB)
T2 construct: 112 amino acids, expressed in E. coli from pET28a+ with N-terminal His-tag; also called fibronectin EDB-domain
Test: binding specificity, T7 peptide phage
Procedure: as §1, §2

| Binder | binding result |
| --- | --- |
| B1 | binds |

Target: T3, NRP-1 on NRP-1-positive cells (U87-MG glioma, PPC1 prostate carcinoma; U87-MG xenograft tumors) (UniProt O14786 22-923, limits assumed)
T3 construct: whole, on cells; in xenografts mouse NRP-1 is also present
Test: nanoparticle binding and uptake on cultured cells, confocal imaging
Procedure: U87-MG, PPC1, and M21 cells cultured on glass coverslips were incubated with CF555-labeled AgNPs at 37° C. for 1 hour, followed by washing with medium to remove background AgNPs. Etching solution freshly diluted from 0.2 M stock solutions of Na₂S₂O₃ and K₃Fe(CN)₆ to 10 mM working concentration in PBS was applied to cells for 3 minutes, followed by PBS washes. The cells on coverslips were fixed with −20° C. methanol for 1 minute. The cell membrane was visualized by staining with Alexa Fluor 488-labeled wheat germ agglutinin (WGA) at 1:1000 at RT for 1 h. Nuclei were stained with 4′,6-diamidino-2-phenylindole (DAPI, Molecular Probes) at 1 μg/mL. Fluoromount-G (Electron Microscopy Sciences) medium was used to mount the coverslips on microscope slides for confocal imaging.
Many cultured tumor cell lines overexpress NRP-1 and internalize peptides with active CendR motif. The uptake of CF555-labeled PL3-AgNPs in NRP-1-positive U87-MG glioma and PPC1 prostate carcinoma cells, and in NRP-1-negative M21 melanoma cells was investigated. The dye-labeled AgNP cores are well suited for fluorescence imaging as the AgNP increases the brightness of the surface-bound dye by about an order of magnitude by plasmonic enhancement. The AgNPs labeled with CF647 dye were coated with neutravidin (NA) and PEGylated, creating a stable colloid ready for coating with biotinylated peptides. […]

T3 sequence (O14786 22-923 limits assumed): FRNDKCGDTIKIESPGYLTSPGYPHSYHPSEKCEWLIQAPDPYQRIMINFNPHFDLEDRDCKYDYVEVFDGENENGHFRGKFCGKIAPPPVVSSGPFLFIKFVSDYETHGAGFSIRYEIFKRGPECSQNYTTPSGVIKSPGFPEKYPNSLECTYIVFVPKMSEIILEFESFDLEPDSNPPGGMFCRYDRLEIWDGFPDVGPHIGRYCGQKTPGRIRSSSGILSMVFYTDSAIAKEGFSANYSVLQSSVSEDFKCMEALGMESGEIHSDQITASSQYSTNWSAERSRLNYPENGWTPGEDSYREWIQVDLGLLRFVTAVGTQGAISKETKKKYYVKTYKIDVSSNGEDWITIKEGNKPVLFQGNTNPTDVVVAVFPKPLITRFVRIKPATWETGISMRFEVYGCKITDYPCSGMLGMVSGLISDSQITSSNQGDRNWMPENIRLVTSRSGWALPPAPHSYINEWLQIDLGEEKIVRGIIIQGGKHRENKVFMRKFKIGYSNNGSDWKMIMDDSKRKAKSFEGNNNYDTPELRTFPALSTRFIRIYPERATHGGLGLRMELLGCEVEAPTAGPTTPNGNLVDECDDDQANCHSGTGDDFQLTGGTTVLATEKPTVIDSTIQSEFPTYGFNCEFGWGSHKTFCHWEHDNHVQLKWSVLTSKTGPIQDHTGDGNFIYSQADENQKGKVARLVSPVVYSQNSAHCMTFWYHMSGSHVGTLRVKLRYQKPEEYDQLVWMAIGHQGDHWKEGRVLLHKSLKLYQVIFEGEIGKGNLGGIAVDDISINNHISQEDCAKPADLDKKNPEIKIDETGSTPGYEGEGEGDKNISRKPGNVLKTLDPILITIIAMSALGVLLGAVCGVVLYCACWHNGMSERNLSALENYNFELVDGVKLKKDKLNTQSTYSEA

| Binder | binding result |
| --- | --- |
| B2 | binds |

Target: T1, recombinant His-tagged tenascin-C C …
Test: ELISA: immobilized FAM-PL1 probed with His-tagged protein, anti-His-tag antibody, HRP
Procedure: (§3) The FAM-labeled peptides were coated on ELISA plates (Nunc Maxisorp, Thermo Fisher Scientific Inc., MA, USA), blocked with PBS containing 1% BSA, and incubated with recombinant proteins at 2 μg/well in PBS for 6 h. The protein was detected using an anti-His-tag antibody, followed by horseradish peroxidase-conjugated secondary antibody, chromogenic reaction, and measurement of absorbance at 450 nm with a microplate reader (Tecan Austria GmbH, Grödig, Austria).
as §2

| Binder | binding result |
| --- | --- |
| B3 | binds |

Target: T2, recombinant His-tagged fibronectin …
Test: as above
Procedure: as §3, §2

| Binder | binding result |
| --- | --- |
| B3 | binds |

Target: T1, recombinant His-tagged tenascin-C C …
Test: T7 peptide phage binding to recombinant TNC-C, fold over control heptaglycine phage
Procedure: Throughout our screens, the phage recovered during a round of selection was amplified using plate amplification protocol (Teesalu et al., 2012). The 1st and 4th round of biopanning were performed on TNC-C immobilized on Costar 96-Well ELISA plate (#3590, Corning Life Sciences, Tewksbury, Mass., USA). Briefly, the multiwell plate was coated with 20 μg/ml recombinant TNC-C in 100 μl of PBS overnight at 4° C., followed by blocking with 1% bovine serum albumin (BSA) in PBS overnight at 4° C. The phage library solution (5×10⁸ pfu in 100 μl of PBS-BSA) were incubated overnight at 4° C., followed by 6 washes with PBS+1% BSA+0.1% Tween 20 to remove non-specifically bound background phages, and by phage rescue and amplification in E. coli strain BLT5403 (Novagen, EMD Biosciences, MA, USA) (Lingasamy, P. et al., Biomaterials 119373. 2019). The subsequent rounds of selection were performed on Ni-NTA Magnetic Agarose Beads (QIAGEN, Hilden, Germany) coated with His-6X tagged TNC-C (30 μg/10 μl beads) at room temperature for 1 hour in 400 μl of PBS. The TNC-C immobilized beads were washed three times with PBS+1% BSA+0.1% NP40, followed by incubation of previous round phage (5×10⁸ pfu in 100 μl of PBS+1% BSA+0.1% NP40) to TNC-C coated beads for 1 hour at room temperature. The unbound/weakly bound (background) phages were removed by rinsing six times with PBS+1% BSA+0.1% NP40, and the bound phages were eluted with 1 ml of PBS+500 mM Imidazole+0.1% NP40.
The recovered phage was tittered and amplified for a subsequent round of selection. […] RPARPAR phage on NRP-1-coated beads was used as a positive control (Teesalu et al., 2009). Phage clones displaying heptaglycine peptide (GGGGGGG, G7 (SEQ ID NO:20)) or insert less phage clones were used as negative controls.

| Binder | TNC-C binding (fold G7 control phage) |
| --- | --- |
| CQRMGVVGAKLAAALE [TNC-C-selected peptide phage clone 36, CQRMGVVGAKLAAALE] | 3930 fold |
| CRGVLRRAKLAAALE [TNC-C-selected peptide phage clone 2, CRGVLRRAKLAAALE] | 5960 fold |
| RGRLRRVE [TNC-C-selected peptide phage clone 44 (Seq ID No. 37)] | 886 fold |
| AGRGRLVRAKLAAALE [TNC-C-selected peptide phage clone 5, AGRGRLVRAKLAAALE] | 5780 fold |
| CSRRGILRAKPAAALE [TNC-C-selected peptide phage clone 4, CSRRGILRAKPAAALE] | 4890 fold |
| RGRLVRA [TNC-C-selected peptide phage clone 45, RGRLVRA] | 737 fold |
| VGRVRFSRKLAAALE [TNC-C-selected peptide phage clone 30, VGRVRFSRKLAAALE] | 3700 fold |
| AGVGRLRRAKLAAALE [TNC-C-selected peptide phage clone 1, AGVGRLRRAKLAAALE] | 3260 fold |
| RRLVRVA [TNC-C-selected peptide phage clone 35, RRLVRVA] | 1220 fold |
| GRLTRVR [TNC-C-selected peptide phage clone 46, GRLTRVR] | 115 fold |

Target: T2, recombinant His-tagged fibronectin …
Test: T7 peptide phage binding to recombinant Fn-EDB, fold over heptaglycine (G7) control phage
Procedure: The first panning round were performed on Fn-EDB immobilized on Costar 96-Well enzyme-linked immunosorbent assay (ELISA) plate (#3590, Corning Life Sciences, Tewksbury, Mass., USA). The plate was coated with 20 μg/ml recombinant Fn-EDB in 100 μl of PBS overnight at 4° C., followed by blocking with 1% bovine serum albumin (BSA) in PBS overnight at 4° C. The phage library solution (5×10⁸ pfu in 100 μl of PBS-BSA) were incubated overnight at 4° C., followed by 6 wash with PBS+BSA+0.1% Tween 20 to remove non-specifically bound background phages, and by phage rescue and amplification in E. coli strain BLT5403 (Novagen, EMD Biosciences, MA, USA) (Teesalu et al., 2012). The consequent rounds of selection were performed on Ni-NTA Magnetic Agarose Beads (QIAGEN, Hilden, Germany) coated with His-6X tagged Fn-EDB (30 μg/10 μl beads) at room temperature for 1 hour in 400 μl of PBS. The Fn-EDB immobilized beads were washed three times with PBS+BSA+0.1% NP40, followed by incubation of previous round phage (5×10⁸ pfu in 100 μl of PBS+BSA+0.1% NP40) for 1 hour at room temperature. The unbound/weakly bound phage removed by rinsing six times with PBS+BSA+0.1% NP40, binding phage were eluted with 1 ml of PBS+500 mM Imidazole+0.1% NP40. The recovered phage was tittered and amplified for a subsequent round of selection.
For cell-free binding studies using individually amplified phage clones; phage was incubated with Fn-EDB coated magnetic beads as described above. RPARPAR phage on NRP-1-coated beads was used as a positive control (Teesalu et al., 2009), Nucleolin (NCL) and Tenascin C—C domain (TNC-C) were used as negative control. Phage clones displaying heptaglycine peptide (GGGGGGG, G7 (SEQ ID NO:20)) or insert less phage clones were used as negative controls.

| Binder | Fold over G7 |
| --- | --- |
| TSKQNSR (also called phage PL2 peptide) [PL2 peptide displayed on T7 phage (TSKQNSR)] | 89 fold |
| RESRRGRVKLAAALE [Fn-EDB-selected peptide phage clone 33, RESRRGRVKLAAALE] | 209 fold |
| GRRGRVIKLKTSEPPQ [Fn-EDB-selected peptide phage clone 4, GRRGRVIKLKTSEPPQ] | 1180 fold |
| GLGGRRIKLKTS [Fn-EDB-selected peptide phage clone 3, GLGGRRIKLKTS] | 2060 fold |
| GTRRRSRINLAAALE [Fn-EDB-selected peptide phage clone 10, GTRRRSRINLAAALE] | 1560 fold |
| TKRKGKG [Fn-EDB-selected peptide phage clone 2, TKRKGKG] | 58 fold |
| VHERTRI [Fn-EDB-selected peptide phage clone 24, VHERTRI] | 1 fold |
| KVKKRGA [Fn-EDB-selected peptide phage clone 17, KVKKRGA] | 44 fold |
